Experimental data from patent publication US8865867.

Experiments:
[1] = molecular target: HIV-1 envelope (isolate used on monocyte-derived macrophages, not named) (HIV-1); assay: cell-based or functional assay
[2] = molecular target: HIV-1 consensus subtype C envelope (HIV-1); assay: cell-based or functional assay

Substance | IC50 of inhibition of HIV-1 replication in MDM, 7 days [1] | Fold Decrease in Anti-HIV activity (IC50 of mutant / IC50 of wild-type BanLec) [2] | IC50(nM), inhibition of infection of TZM-bl cells by pseudotyped HIV-1 [2]
BanLec | 9.72 nM |  | 
BanLec H84A |  | 2.5 fold | 0.7 nM
BanLec H84M |  | 21 fold | 7.7 nM
BanLec H84S |  | 4.1 fold | 1.6 nM
BanLec H84T |  | 23 fold | 7 nM
BanLec H84Y |  |  | 0.29 nM
